In publication PMC9913602:

Assays:
[1] = target: HCV NS3/NS4A protease complex (NS3 protease domain residues 1-182 preincubated with synthetic NS4A cofactor peptide) (hepatitis C virus); experiment: single-turnover cleavage kinetics (Western blot of remaining substrate); 0.1 μM IKKε with 5 μM NS3 + 244 μM NS4A peptide, 23 °C, digestion buffer (50 mM HEPES pH 7.8, 0.5 mM EDTA, 25% glycerol, 10 mM DTT, 0.25 M KCl, 0.05 M NaCl, 0.2% CHAPS); Kd estimated by Equation (2) from the constant c of the single-exponential fit, assumed to be unbound kinase
[2] = target: HCV NS3/NS4A protease complex (NS3 protease domain residues 1-182 preincubated with synthetic NS4A cofactor peptide) (hepatitis C virus); experiment: single-turnover cleavage kinetics (Western blot of remaining substrate); 0.5 μM IKKε with 5 μM NS3 + 244 μM NS4A peptide, 23 °C, digestion buffer (50 mM HEPES pH 7.8, 0.5 mM EDTA, 25% glycerol, 10 mM DTT, 0.25 M KCl, 0.05 M NaCl, 0.2% CHAPS); Kd estimated by Equation (2) from the constant c of the single-exponential fit, assumed to be unbound kinase

Q: With “Recombinant human IKKε (Inhibitor of κB kinase ε) (from UniProt Q14164 1-716) (enzyme)” as the substance, how does the Kd [1] read?
A: 4.57 µM

Q: What about the Kd [2] of the same substance?
A: 1.68 µM
